Test results published in the supplement of paper PMC12042874.
± gives the uncertainty stated by the source.

Assay: amyloid nucleation score (Sup35N fusion, yeast selection) (log enrichment); library NNK2; higher = more nucleation; inactive = no reads after selection
How it was run: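 Growth for 7 days at 30°C on medium lacking adenine and uracil followed a 24-hour induction with 100 μM copper sulfate of psi-negative yeast expressing peptides of 20 random codons fused to Sup35N. Input and output plasmid inserts were sequenced with Illumina, and sequences with under 100 input reads were excluded. Nucleation score is the DiMSum log enrichment of output over input reads, centred on the mode score of non-aggregating sequences.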

Substance | amyloid nucleation score
YDYVEGAEPPLGDGCIVVFH | -0.451 ± 0.79
MVVYRVPMAQLLPS | inactive
VYMPYHLSYMLEPRQNSVLS | -0.744 ± 1.1
DVFWYDATTRYGGRCRGQIS | 1.11 ± 0.31
ATLNVLDPHFYNMY | -0.691 ± 0.41
DFNLWPLC | -0.373 ± 1.1
SIDEVGTANVPHGDW | 0.741 ± 0.25
VSWDISMNEVADWVVGAGGA | 1.13 ± 0.42
WYSNAVG | 1.57 ± 0.37
WSYRTESIHLYYLRPIFKIV | -1.11 ± 0.54
FLTNGESGTMGI | inactive
FYYSLTMRLD | -0.322 ± 0.42
DSISFNPYRMLRDNYLLHVC | 1.9 ± 0.13
SAFSFAIVIYFRLCKVGLVD | -0.92 ± 1.1
LNNNGASNGFTTYSALNVG | -0.59 ± 0.28
FATKRERNVWFMSIEWFVRG | -0.707 ± 0.44
VYMFCRGGTHEAYFFHTGLC | -0.256 ± 0.79
TLSSFL | -1.55 ± 0.41
CVAWKR | 0.554 ± 0.48
SESYVLYNIFGFSVKLDEHG | -1 ± 1
MLYYNESVINAVVYVKGRCW | -0.012 ± 1.1
GRRLKGYVTSGIEDWLKGRM | 0.908 ± 0.35

Substance | amyloid nucleation score
GYIYPNRIHNLYVGTMSVTV | 5.43 ± 0.093
ALWVKGMFGGTMTRGILFLC | -0.369 ± 1.1
IGVVILNHADSSLVTL | 3.31 ± 0.091
RLCGV | -1.17 ± 0.55
DNKWILDRLIQHSLDHKVCR | -0.332 ± 0.63
KTGESMVNPIARMWLR | 1.51 ± 0.17
ISVGRSYSV | 0.694 ± 0.24
WGLHYSRYHLHV | -0.494 ± 0.27
KCIYDFHHRKSSVRDSLSFH | -1.6 ± 0.75
YYQYGWEYARLWLIDNILHG | -0.064 ± 1.1
WPKSAILIHCRVANGLCRFV | 6.586 ± 0.046
CKTLVSGGL | -0.344 ± 0.41
NSASLFFS | 0.27 ± 0.17
PNPRPVSICNRLYPF | -0.246 ± 0.38
IFSNIFSFV | 3.55 ± 0.13
CFEMV | -0.886 ± 0.21
LRPDSNWTGVESLFR | -0.66 ± 0.55
VINLGGSE | 0.406 ± 0.38
FKHLLSMVIVECFIVIVILC | -0.041 ± 0.5
LVKLEYALSVFRENSGSNLN | 1.07 ± 0.3
HLNCISRGPMWLNDRMCQCP | 1.76 ± 0.12
TVKCYNL | 0.268 ± 0.46

Substance | amyloid nucleation score
NRLWHPQCLWAFLNIRNPQL | 0.286 ± 0.48
TLCGFNKGAAIGWCTWNSEK | 4.05 ± 0.13
HIIGLIYQKGTSWTA | 4.85 ± 0.073
VVVSRTITLSTSYEFYIVKY | 0.798 ± 0.32
CSWVRSLYNGIVLKKH | -0.652 ± 0.45
YRRRSKHAVNKGRMCA | 1.3 ± 0.28
RNYHIQYIAVRVLIPASA | 5 ± 0.068
ACLGHSLAVVRTMTDSRKRL | 0.367 ± 0.74
FGSAFTNGSVRNYVDGVQVI | 0.648 ± 0.74
SRRLCVTFAVFGSHKVLLS | inactive
SIGHNSSF | 0.117 ± 0.49
SPYRLSPTQTLSFCFIRHLP | inactive
YVSMLTNLTDLTSM | 0.572 ± 0.33
FNLMLI | inactive
SSRLAKIHSMGWFFIFLGIS | -1.22 ± 1
EWNAKLWSLPSGATGCKSQS | 1.16 ± 0.2
GLFLRSTP | -0.402 ± 0.42
SKQCSKILTIKRMISLTGNE | -0.542 ± 0.49
VCWGFSFATHGLWDMAF | -0.32 ± 0.26
WYFWGLHMIGVSTAISNPLR | -0.683 ± 1.1
RAWKSPYCLNTRMSTEGHEY | 0.348 ± 0.48
FKSIDISAFSSSSHTGSYLG | 0.578 ± 0.81

Substance | amyloid nucleation score
KTHIREVCEGVTIIHKWTWV | -0.508 ± 0.63
DKYAGCNSDDINWMKDRVSG | 0.029 ± 0.5
ATLGTVRCYRKRAIFFEGHL | 1.17 ± 0.45
RQDPDSLTLHRLSSGGIR | 0.366 ± 0.64
VNWEHVRIVELFYKGMSQMA | -0.549 ± 1
RMWCQVKS | -0.236 ± 0.53
WSSHFWMFGSAVSQAWGRGW | 3.17 ± 0.074
VEVYTVSSYVDYVYPDCRGV | 0.418 ± 0.62
SWYILILGFRGKIIYPFRLG | -1.03 ± 0.76
KWIRDIRDLQTH | -0.275 ± 0.65
KTFTWHIVRLYYKYPPMPKV | inactive
NRSTDAYFIILHICYTNGVY | -0.429 ± 0.61
AMAVLALHTVRSQLP | 5.988 ± 0.037
SLHMFLVIFSYLLVANRGKS | 0.246 ± 0.65
DLAFFMLHYLHIRRCKDYPR | inactive
HVRMK | 4.79 ± 0.1
YICRNLISESLCLYYTGARG | 5.03 ± 0.065
YLSNKT | -0.515 ± 0.29
GISRGLILEVTC | 1.12 ± 0.43
MRLLVHSWDIESSFNVRMGQ | 3.42 ± 0.058
SSGSRRLWSLRSRIAQRNMQ | 2.83 ± 0.17
